Results from paper PMC6706441, “B1 oligomerization regulates PML nuclear body biogenesis and leukemogenesis” (Nature Communications, 2019).

B1: full-length PML isoform IV, wild type (mammalian two-hybrid fusions) [human (by the printed UniProt code P29590-5)] / full-length PML isoform IV, wild type (mammalian two-hybrid fusions) [human (by the printed UniProt code … (parent)
chain 1: MEPAPARSPRPQQDPARPQEPTMPPPETPSEGRQPSPSPSPTERAPASEEEFQFLRCQQCQAEAKCPKLLPCLHTLCSGCLEASGMQCPICQAPWPLGADTPALDNVFFESLQRRLSVYRQIVDAQAVCTRCKESADFWCFECEQLLCAKCFEAHQWFLKHEARPLAELRNQSVREFLDGTRKTNNIFCSNPNHRTPTLTSIYCRGCSKPLCCSCALLDSSHSELKCDISAEIQQRQEELDAMTQALQEQDSAFGAVHAQMHAAVGQLGRARAETEELIRERVRQVVAHVRAQERELLEAVDARYQRDYEEMASRLGRLDAVLQRIRTGSALVQRMKCYASDQEVLDMHGFLRQALCRLRQEEPQSLQAAVRTDGFDEFKVRLQDLSSCITQGKDAAVSKKASPEAASTPRDPIDVDLPEEAERVKAQVQALGLAEAQPMAVVQSVPGAHPVPVYAFSIKGPSYGEDVSNTTTAQKRKCSQTQCPRKVIKMESEEGKEARLARSSPEQPRPSTSKAVSPPHLDGPPSPRSPVIGSEVFLPNSNHVASGAGEAEERVVVISSSEDSDAENSSSRELDDSSSESSDLQLEGPSTLRVLDENLADPQAEDRPLVFFDLKIDNESGFSWGYPHPFLI
chain 2: B1 chain 1

Variants of: B1
Assay: mammalian two-hybrid assay
Conditions: with full-length PML isoform IV, parent: 38, read off a plot, scale: fold change

Question: How did the response turn out when chain 1 F158E was run?
Answer: Its response is 2.8.

Question: chain 1 I122P V123P was tested. Which response did it give?
Answer: The response was 21.

Question: With chain 1 W157E as the variant, how does the response read?
Answer: Its response is 3.2.
